2 molecules from US20260256923, “NEW RECRUITMENT ELEMENT OF UBIQUITIN LIGASE AND USE THEREOF” (SHENZHEN LINGGENE BIOTECH CO., LTD., published 2026) can be followed below.

Data set [1] addresses T1, MDM2 (Homo sapiens, UniProt Q00987 Q00987:1-491). Briefly: pulldown; NCL present; iSN04 blocks NCL-MDM2 interaction. Particulars: tags: R&D Systems E3-202-050; label: 5'-biotin; weak G4 only with K+. How it is done:
(§1) 6 μg/mL recombinant human NCL and 6 μg/mL recombinant human MDM2 were mixed well and incubated at 4° C. for 7 h. Subsequently, 400 nM CRO, AS1411, or iSN04 labeled by biotin at the 5′ end was added, and the mixture was incubated at 4° C. for 6 h. Streptavidin agarose gel beads (purchased from cytiva, Cat. No.: 17511301) were added, and the mixture was further incubated at 4° C. overnight. The gel beads were washed 4 times with a TBST buffer, and an SDS-PAGE protein loading buffer (purchased from Beyotime, Cat. No.: P0015) was added. The mixture was heated to 100° C. and held for 10 min. After centrifugation, the supernatant was collected. The pull-down product was then detected by western blot assay.

For the next data set, the target named is Nucleolin (NCL) (Homo sapiens, UniProt P19338 P19338:2-710). Briefly: pulldown; 400 nM oligo, with MDM2, 4 C. The note with it: tags: ACROBiosystems NUL-H5253, label: 5'-biotin. How it is done:
as §1

In data set [2] the target is T1, MDM2. Briefly: pulldown; NCL present. Particulars: tags: R&D Systems E3-202-050; label: 5'-biotin. As to the method:
as §1

T1 sequence (Q00987 whole entry, one chain of several): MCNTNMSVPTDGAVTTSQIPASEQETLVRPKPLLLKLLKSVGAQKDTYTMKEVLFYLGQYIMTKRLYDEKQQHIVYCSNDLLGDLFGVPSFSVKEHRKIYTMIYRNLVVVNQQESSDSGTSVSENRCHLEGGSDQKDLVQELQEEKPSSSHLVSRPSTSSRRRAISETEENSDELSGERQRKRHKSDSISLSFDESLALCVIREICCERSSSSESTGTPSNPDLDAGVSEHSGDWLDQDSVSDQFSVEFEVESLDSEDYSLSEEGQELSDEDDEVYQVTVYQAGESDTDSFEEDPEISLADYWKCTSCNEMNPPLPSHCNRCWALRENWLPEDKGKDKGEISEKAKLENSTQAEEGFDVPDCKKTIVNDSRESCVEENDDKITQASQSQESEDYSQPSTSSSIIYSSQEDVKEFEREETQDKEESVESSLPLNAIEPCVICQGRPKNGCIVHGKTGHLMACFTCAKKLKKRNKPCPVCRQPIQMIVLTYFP
Nucleolin (NCL), sequence (P19338 2-710, one chain of several): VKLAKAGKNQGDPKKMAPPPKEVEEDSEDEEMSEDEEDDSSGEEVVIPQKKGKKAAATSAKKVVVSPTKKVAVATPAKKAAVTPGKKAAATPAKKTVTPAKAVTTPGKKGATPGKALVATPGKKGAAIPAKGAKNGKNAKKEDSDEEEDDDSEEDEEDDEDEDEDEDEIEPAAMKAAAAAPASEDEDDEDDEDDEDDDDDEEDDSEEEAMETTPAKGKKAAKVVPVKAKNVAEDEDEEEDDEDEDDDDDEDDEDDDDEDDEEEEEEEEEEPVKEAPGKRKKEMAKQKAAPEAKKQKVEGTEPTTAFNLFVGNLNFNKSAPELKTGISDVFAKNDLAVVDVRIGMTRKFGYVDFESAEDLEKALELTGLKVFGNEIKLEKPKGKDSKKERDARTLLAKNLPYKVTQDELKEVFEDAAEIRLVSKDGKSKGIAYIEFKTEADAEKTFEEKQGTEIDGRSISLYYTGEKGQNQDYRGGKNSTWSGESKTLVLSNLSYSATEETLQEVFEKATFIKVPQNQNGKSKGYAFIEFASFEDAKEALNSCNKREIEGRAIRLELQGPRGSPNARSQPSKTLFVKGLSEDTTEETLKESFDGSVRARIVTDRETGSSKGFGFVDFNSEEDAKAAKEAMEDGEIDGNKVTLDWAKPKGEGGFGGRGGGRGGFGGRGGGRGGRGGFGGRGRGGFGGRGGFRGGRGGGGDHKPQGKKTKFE

AGATTAGGGTGAGGGTGA (ssDNA) [iSN04]: the values for the binding result with MDM2 [1] and with Nucleolin (NCL) (weak G4 only with K+) were “no binding” and “binds”, respectively.

With CCTCCTCCTCCTTCTCCTCCTCCTCC (ssDNA) [CRO], the binding result in the data set with MDM2 [2] and with Nucleolin (NCL) was “no binding” in each case.
